These results are taken from IntAct's records for PubMed 29039417.

The labels stand for the following.
B1: BBSome complex member BBS2 (Homo sapiens), Q9BXC9 (parent)
chain: MLLPVFTLKLRHKISPRMVAIGRYDGTHPCLAAATQTGKVFIHNPHTRNQHVSASRVFQSPLESDVSLLSINQAVSCLTAGVLNPELGYDALLVGTQTNLLAYDVYNNSDLFYREVADGANAIVLGTLGDISSPLAIIGGNCALQGFNHEGSDLFWTVTGDNVNSLALCDFDGDGKKELLVGSEDFDIRVFKEDEIVAEMTETEIVTSLCPMYGSRFGYALSNGTVGVYDKTSRYWRIKSKNHAMSIHAFDLNSDGVNELITGWSNGKVDARSDRTGEVIFKDNFSSAIAGVVEGDYRMDGHIQLICCSVDGEIRGYLPGTAEMRGNLMDTSAEQDLIRELSQKKQNLLLELRNYEENAKAELASPLNEADGHRGIIPANTRLHTTLSVSLGNETQTAHTELRISTSNDTIIRAVLIFAEGIFTGESHVVHPSIHNLSSSICIPIVPPKDVPVDLHLKAFVGYRSSTQFHVFESTRQLPRFSMYALTSLDPASEPISYVNFTIAERAQRVVVWLGQNFLLPEDTHIQNAPFQVCFTSLRNGGHLHIKIKLSGEITINTDDIDLAGDIIQSMASFFAIEDLQVEADFPVYFEELRKVLVKVDEYHSVHQKLSADMADHSNLIRSLLVGAEDARLMRDMKTMKSRYMELYDLNRDLLNGYKIRCNNHTELLGNLKAVNQAIQRAGRLRVGKPKNQVITACRDAIRSNNINTLFKIMRVGTASS
partner: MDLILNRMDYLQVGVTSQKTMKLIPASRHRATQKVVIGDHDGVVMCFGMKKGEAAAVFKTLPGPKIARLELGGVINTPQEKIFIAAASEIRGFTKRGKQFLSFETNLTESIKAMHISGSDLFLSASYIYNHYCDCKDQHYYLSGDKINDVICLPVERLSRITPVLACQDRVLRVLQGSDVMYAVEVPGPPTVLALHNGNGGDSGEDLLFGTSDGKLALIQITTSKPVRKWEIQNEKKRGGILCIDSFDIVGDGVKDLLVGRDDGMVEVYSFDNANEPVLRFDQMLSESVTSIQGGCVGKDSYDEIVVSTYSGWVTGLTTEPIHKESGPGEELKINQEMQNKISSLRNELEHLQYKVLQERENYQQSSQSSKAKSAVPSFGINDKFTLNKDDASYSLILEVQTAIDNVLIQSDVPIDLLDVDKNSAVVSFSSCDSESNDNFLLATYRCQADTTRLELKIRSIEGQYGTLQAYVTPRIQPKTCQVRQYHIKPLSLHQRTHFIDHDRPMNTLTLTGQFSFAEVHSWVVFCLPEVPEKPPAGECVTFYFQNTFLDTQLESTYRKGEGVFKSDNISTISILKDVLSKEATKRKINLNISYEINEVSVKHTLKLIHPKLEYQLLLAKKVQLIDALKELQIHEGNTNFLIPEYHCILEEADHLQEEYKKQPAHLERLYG

Variants of B1 are the subject of this assay. The following applies: with BBS7, Q8IWZ6-2.
Turning to I707E, the “effect of a mutation on the interaction” value was “with no effect”.

In the case of V687K, the “effect of a mutation on the interaction” value was “with no effect”.

Take V687A: the “effect of a mutation on the interaction” value was “with no effect”.

As to V687E, the “effect of a mutation on the interaction” value was “with no effect”.

On to N708A, for which the “effect of a mutation on the interaction” value is “with no effect”.

Regarding N708K, the “effect of a mutation on the interaction” value is “with no effect”.

For N708E, the “effect of a mutation on the interaction” value is reported as “with no effect”.

In the case of N671E, the “effect of a mutation on the interaction” value is “disrupting interaction strength”.

For the variant N671K, the “effect of a mutation on the interaction” value is listed as “with no effect”.

In the case of N671A, the “effect of a mutation on the interaction” value was “with no effect”.

L668E: the “effect of a mutation on the interaction” value is “with no effect”.

As for L668K, the “effect of a mutation on the interaction” value is on record as “with no effect”.

Take L668A: the “effect of a mutation on the interaction” value is given as “with no effect”.

For the variant D700A, the “effect of a mutation on the interaction” value was “with no effect”.

D700E: the “effect of a mutation on the interaction” value was “with no effect”.

On to D700K, for which the “effect of a mutation on the interaction” value is “with no effect”.

Turning to R652A, the “effect of a mutation on the interaction” value was “with no effect”.

For the variant R652E, the “effect of a mutation on the interaction” value is listed as “with no effect”.

Regarding R652K, the “effect of a mutation on the interaction” value is listed as “with no effect”.

With N676E, the “effect of a mutation on the interaction” value is on record as “with no effect”.

For the variant N676A, the “effect of a mutation on the interaction” value is recorded as “with no effect”.

For the variant N676T, the “effect of a mutation on the interaction” value is reported as “disrupting interaction strength”.

Take N676K: the “effect of a mutation on the interaction” value was “with no effect”.

For R661A, the “effect of a mutation on the interaction” value is reported as “with no effect”.

For R661K, the “effect of a mutation on the interaction” value is reported as “with no effect”.

Turning to R661E, the “effect of a mutation on the interaction” value was “with no effect”.

As to Q693K, the “effect of a mutation on the interaction” value is reported as “with no effect”.

With Q693E, the “effect of a mutation on the interaction” value is “with no effect”.

On to Q693A, for which the “effect of a mutation on the interaction” value is given as “with no effect”.

For the variant T709E, the “effect of a mutation on the interaction” value is reported as “with no effect”.

Consider T709K, for which the “effect of a mutation on the interaction” value was “with no effect”.

As to T709A, the “effect of a mutation on the interaction” value is reported as “with no effect”.

Turning to Q677A, the “effect of a mutation on the interaction” value is “with no effect”.

As for Q677K, the “effect of a mutation on the interaction” value is listed as “with no effect”.

Consider Q677E, for which the “effect of a mutation on the interaction” value is given as “with no effect”.

Take Y658A: the “effect of a mutation on the interaction” value was “with no effect”.

With Y658E, the “effect of a mutation on the interaction” value is given as “with no effect”.

Take Y658K: the “effect of a mutation on the interaction” value is reported as “with no effect”.

With E667K, the “effect of a mutation on the interaction” value is recorded as “with no effect”.

Regarding E667A, the “effect of a mutation on the interaction” value was “with no effect”.

With C662K, the “effect of a mutation on the interaction” value is given as “with no effect”.

In the case of C662A, the “effect of a mutation on the interaction” value is given as “with no effect”.

Turning to C662E, the “effect of a mutation on the interaction” value is reported as “with no effect”.

On to K673E, for which the “effect of a mutation on the interaction” value is “with no effect”.

Turning to K673A, the “effect of a mutation on the interaction” value was “with no effect”.

As for L685A, the “effect of a mutation on the interaction” value is reported as “disrupting interaction strength”.

In the case of L685E, the “effect of a mutation on the interaction” value is reported as “disrupting interaction strength”.

In the case of L685K, the “effect of a mutation on the interaction” value is recorded as “with no effect”.

Turning to V675K, the “effect of a mutation on the interaction” value is listed as “with no effect”.

Turning to V675A, the “effect of a mutation on the interaction” value is “with no effect”.

As to V675E, the “effect of a mutation on the interaction” value was “with no effect”.

As to H665K, the “effect of a mutation on the interaction” value is reported as “with no effect”.

On to H665A, for which the “effect of a mutation on the interaction” value is listed as “with no effect”.

Turning to H665E, the “effect of a mutation on the interaction” value is listed as “with no effect”.

On to A697K, for which the “effect of a mutation on the interaction” value is given as “with no effect”.

A697E: the “effect of a mutation on the interaction” value is on record as “with no effect”.

With L669A, the “effect of a mutation on the interaction” value is on record as “with no effect”.

As for L669K, the “effect of a mutation on the interaction” value is recorded as “with no effect”.

As to L669E, the “effect of a mutation on the interaction” value is given as “with no effect”.

As for N706A, the “effect of a mutation on the interaction” value is “with no effect”.

Consider N706E, for which the “effect of a mutation on the interaction” value is “with no effect”.

For N706K, the “effect of a mutation on the interaction” value is on record as “with no effect”.

Regarding K712E, the “effect of a mutation on the interaction” value is listed as “with no effect”.

K712A: the “effect of a mutation on the interaction” value is on record as “with no effect”.

Regarding L655K, the “effect of a mutation on the interaction” value is “with no effect”.

With L655A, the “effect of a mutation on the interaction” value is given as “with no effect”.

In the case of L655E, the “effect of a mutation on the interaction” value is listed as “with no effect”.

With R684K, the “effect of a mutation on the interaction” value was “with no effect”.

With R684A, the “effect of a mutation on the interaction” value was “with no effect”.

As for R684E, the “effect of a mutation on the interaction” value is “with no effect”.

On to A682E, for which the “effect of a mutation on the interaction” value is on record as “with no effect”.

Consider A682K, for which the “effect of a mutation on the interaction” value was “with no effect”.

As to I695K, the “effect of a mutation on the interaction” value is listed as “with no effect”.

Consider I695E, for which the “effect of a mutation on the interaction” value is “with no effect”.

As for I695A, the “effect of a mutation on the interaction” value is reported as “with no effect”.

With L654A, the “effect of a mutation on the interaction” value is “with no effect”.

As to L654E, the “effect of a mutation on the interaction” value is “with no effect”.

In the case of L654K, the “effect of a mutation on the interaction” value was “with no effect”.

For the variant P690K, the “effect of a mutation on the interaction” value is listed as “with no effect”.

On to P690E, for which the “effect of a mutation on the interaction” value is on record as “with no effect”.

With P690A, the “effect of a mutation on the interaction” value is recorded as “with no effect”.

Consider I660E, for which the “effect of a mutation on the interaction” value was “with no effect”.

On to I660A, for which the “effect of a mutation on the interaction” value is listed as “with no effect”.

In the case of I660K, the “effect of a mutation on the interaction” value is given as “with no effect”.

In the case of K659E, the “effect of a mutation on the interaction” value is given as “with no effect”.

As to K659A, the “effect of a mutation on the interaction” value was “with no effect”.

G688E: the “effect of a mutation on the interaction” value is “disrupting interaction strength”.

As for G688R, the “effect of a mutation on the interaction” value is recorded as “disrupting interaction strength”.

As for G688K, the “effect of a mutation on the interaction” value is given as “disrupting interaction strength”.

As to G688A, the “effect of a mutation on the interaction” value is reported as “disrupting interaction strength”.
